Measurements published in PMC9979147.

Target: Pertuzumab, 2 weeks stressed in PBS, pH 7.4
Assay: SPR; Biacore T200; pertuzumab immobilized on a Series S Protein A sensor chip (145 RU); single-cycle kinetics, five sequential injections of HER2 from 1.22 to 100 nM; phosphate-buffered saline with 0.05% Tween 20; flow 30 μL/min; 1:1 binding model

Sequence of Pertuzumab, 2 weeks stressed in PBS, pH 7.4 (heavy, as listed by the source, chain 1 of 2): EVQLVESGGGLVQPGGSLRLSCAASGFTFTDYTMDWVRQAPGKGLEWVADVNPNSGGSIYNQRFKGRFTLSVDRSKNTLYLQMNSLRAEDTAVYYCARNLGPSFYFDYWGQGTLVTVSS
Sequence of Pertuzumab, 2 weeks stressed in PBS, pH 7.4 (light, as listed by the source, chain 2 of 2): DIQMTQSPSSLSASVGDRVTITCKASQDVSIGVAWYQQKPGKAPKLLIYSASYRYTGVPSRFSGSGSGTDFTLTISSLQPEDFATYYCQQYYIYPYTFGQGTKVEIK

Human HER2/ErbB2 protein, extracellular domain Thr23-Thr652, His Tag (from UniProt P04626 23-652) (domain or fragment)
Kd: 2.3 nM
